Experimental data published in US20230416347A1.
Positions count from the first letter of the chain named.

How the values were obtained:
rVλ6Wil fibrils [1] = test: EuLISA on rVλ6Wil fibrils (FIG. 5A)
rVλ6Wil fibrils [2] = test: EuLISA on rVλ6Wil fibrils (FIG. 5B)

B1: VH10/VL4 (antibody, V domains shown)
VH: QVQLQESGPGLVKPSETLSLTCTVSGFSLSSYGVSWIRQPPGKGLEWLGVIWGDGSTNYHPNLMSRLSISKDTSKSQVLLKLSSVTAADTAVYYCVTLDYWGQGTSVTVSS
VL: DVVMTQSPLSLPVTLGQPASISCRSSQSLVHRNGNTYLHWFQQRPGQSPRLLIYKVSNRFSGVPDRFSGSGSGTDFTLKISRVEAEDVGVYFCFQTTYVPNTFGGGTKLEIK
Question: For B1, which EC50 (rVλ6Wil fibrils [1]) is on record?
Answer: 0.017 µM

B2: VH8/VL4 (antibody, V domains shown)
VH: B1 VH with L48I, L67V, S68T, V78F, L79S
VL: B1 VL
Question: For B2, which EC50 (rVλ6Wil fibrils [1]) is on record?
Answer: 0.016 µM

B3: VH7/VL4 (antibody, V domains shown)
VH: B1 VH with L48I, L67V, S68T, S76N
VL: B1 VL
Question: Which EC50 (rVλ6Wil fibrils [1]) does the source give for B3 here?
Answer: 0.075 µM

B4: VH6/VL3 (antibody, V domains shown)
VH: B1 VH with I37V, S76N, V78F, L79S, V92T
VL: B1 VL with F41Y, Q42L, V90L
Question: With B4 as the binder, how does the EC50 (rVλ6Wil fibrils [1]) read?
Answer: 0.095 µM

Question: And the EC50 (rVλ6Wil fibrils [2])?
Answer: 0.095 µM
